Measured values: patent US6682898B2, “High-throughput screening assays for modulators of STAT4 activity” (Tularik Inc., priority 1998, dated 2004)
Non-standard residues stand in square brackets, D forms with d. No end group written: not given here. pY = N[C@@H](Cc1ccc(OP(=O)(O)O)cc1)C(=O)O

How the values were obtained:
[1] = molecular target: T1, STAT6 (Homo sapiens, UniProt P42226); test: SH2 domain protein binding assay, STAT6; set-up: key: +++ = high affinity binding
T1 sequence (P42226 1-847): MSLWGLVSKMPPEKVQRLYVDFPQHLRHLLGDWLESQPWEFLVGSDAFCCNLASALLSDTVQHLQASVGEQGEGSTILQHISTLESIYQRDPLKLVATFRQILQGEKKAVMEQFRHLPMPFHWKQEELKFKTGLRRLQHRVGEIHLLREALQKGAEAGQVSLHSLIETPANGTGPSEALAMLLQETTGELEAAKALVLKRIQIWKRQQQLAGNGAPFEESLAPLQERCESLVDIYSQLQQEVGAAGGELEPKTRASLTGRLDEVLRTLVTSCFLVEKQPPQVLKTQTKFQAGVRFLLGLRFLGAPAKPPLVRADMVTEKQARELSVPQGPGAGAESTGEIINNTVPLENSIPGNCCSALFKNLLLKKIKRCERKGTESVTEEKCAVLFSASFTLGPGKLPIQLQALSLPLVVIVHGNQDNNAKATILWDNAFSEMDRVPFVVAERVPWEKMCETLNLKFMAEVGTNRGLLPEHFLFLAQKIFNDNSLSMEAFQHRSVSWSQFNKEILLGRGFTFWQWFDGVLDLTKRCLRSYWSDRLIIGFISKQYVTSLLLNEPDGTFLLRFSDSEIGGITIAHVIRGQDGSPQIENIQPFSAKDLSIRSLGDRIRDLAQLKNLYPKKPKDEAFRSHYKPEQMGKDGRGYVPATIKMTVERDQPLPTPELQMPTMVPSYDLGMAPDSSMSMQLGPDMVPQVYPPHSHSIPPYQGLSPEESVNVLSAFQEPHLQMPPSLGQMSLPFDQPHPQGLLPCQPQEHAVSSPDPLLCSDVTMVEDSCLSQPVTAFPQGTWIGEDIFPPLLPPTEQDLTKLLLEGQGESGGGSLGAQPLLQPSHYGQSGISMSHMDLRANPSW
Excerpt: (§1) This Example describes binding assays for various proteins that contain SH2 domains.

[2] = molecular target: Src (Homo sapiens, UniProt P12931); test: SH2 domain protein binding assay, Src; set-up: key: +++ = high affinity binding
Excerpt: as §1

[3] = tested on: PLCγ; test: SH2 domain protein binding assay, PLCγ; set-up: key: +++ = high affinity binding
Excerpt: as §1

[4] = molecular target: T2, Ras-GAP (Homo sapiens, UniProt P20936); test: SH2 domain protein binding assay, Ras-GAP; set-up: key: +++ = high affinity binding
T2 sequence (P20936 1-1047): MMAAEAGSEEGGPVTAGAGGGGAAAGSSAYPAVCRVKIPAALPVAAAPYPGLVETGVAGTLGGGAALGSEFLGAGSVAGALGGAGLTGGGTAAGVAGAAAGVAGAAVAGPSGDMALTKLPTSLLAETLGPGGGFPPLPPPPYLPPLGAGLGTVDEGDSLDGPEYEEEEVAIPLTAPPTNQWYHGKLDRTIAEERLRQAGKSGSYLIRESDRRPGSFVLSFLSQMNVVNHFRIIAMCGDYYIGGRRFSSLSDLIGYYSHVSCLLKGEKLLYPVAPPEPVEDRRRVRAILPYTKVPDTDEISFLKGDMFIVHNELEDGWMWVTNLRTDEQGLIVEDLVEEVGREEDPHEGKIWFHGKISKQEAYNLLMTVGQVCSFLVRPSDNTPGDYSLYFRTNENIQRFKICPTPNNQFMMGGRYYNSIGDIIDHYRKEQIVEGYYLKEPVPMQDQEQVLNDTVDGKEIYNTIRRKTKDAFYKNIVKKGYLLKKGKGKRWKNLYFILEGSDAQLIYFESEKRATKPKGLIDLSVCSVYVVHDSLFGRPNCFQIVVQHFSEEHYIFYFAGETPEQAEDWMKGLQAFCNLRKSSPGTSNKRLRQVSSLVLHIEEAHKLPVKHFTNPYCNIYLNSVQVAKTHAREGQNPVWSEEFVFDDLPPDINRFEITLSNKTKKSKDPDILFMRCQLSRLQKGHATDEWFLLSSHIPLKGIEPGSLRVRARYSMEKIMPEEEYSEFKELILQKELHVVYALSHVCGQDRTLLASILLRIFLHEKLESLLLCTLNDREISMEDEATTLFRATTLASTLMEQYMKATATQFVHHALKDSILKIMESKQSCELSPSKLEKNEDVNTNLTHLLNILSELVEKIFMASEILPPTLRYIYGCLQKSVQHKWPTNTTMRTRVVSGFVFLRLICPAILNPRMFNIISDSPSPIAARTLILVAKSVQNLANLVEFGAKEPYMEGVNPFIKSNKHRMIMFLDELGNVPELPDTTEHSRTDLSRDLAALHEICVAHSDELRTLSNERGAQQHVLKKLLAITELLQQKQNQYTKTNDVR
Excerpt: as §1

[5] = molecular target: P85-PI3K (Homo sapiens, UniProt P27986); test: SH2 domain protein binding assay, P85-PI3K; set-up: key: +++ = high affinity binding
Sequence of P85-PI3K (P27986 whole entry, the tested form may be a part): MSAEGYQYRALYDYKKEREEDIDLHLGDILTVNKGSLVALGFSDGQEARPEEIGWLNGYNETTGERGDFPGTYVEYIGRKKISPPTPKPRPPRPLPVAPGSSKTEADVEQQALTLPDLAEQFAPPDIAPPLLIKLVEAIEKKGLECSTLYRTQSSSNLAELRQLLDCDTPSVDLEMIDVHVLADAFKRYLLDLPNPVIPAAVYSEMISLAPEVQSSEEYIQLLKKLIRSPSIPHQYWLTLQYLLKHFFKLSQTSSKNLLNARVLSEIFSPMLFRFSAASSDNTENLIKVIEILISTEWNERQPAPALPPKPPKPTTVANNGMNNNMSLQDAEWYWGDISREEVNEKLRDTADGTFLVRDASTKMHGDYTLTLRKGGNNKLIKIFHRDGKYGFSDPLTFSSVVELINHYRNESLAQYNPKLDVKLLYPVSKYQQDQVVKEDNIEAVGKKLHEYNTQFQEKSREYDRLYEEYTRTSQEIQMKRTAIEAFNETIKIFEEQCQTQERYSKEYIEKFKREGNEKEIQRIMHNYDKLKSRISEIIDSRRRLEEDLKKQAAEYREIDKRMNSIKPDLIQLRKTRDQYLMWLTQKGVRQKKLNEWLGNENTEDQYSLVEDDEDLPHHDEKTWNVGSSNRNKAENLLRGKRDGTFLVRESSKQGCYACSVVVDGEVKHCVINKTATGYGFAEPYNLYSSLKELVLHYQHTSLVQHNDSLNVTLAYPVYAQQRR
Excerpt: as §1

[6] = molecular target: T3, Syp (Homo sapiens, UniProt Q06124); test: SH2 domain protein binding assay, Syp; set-up: key: +++ = high affinity binding
T3 sequence (Q06124 1-593): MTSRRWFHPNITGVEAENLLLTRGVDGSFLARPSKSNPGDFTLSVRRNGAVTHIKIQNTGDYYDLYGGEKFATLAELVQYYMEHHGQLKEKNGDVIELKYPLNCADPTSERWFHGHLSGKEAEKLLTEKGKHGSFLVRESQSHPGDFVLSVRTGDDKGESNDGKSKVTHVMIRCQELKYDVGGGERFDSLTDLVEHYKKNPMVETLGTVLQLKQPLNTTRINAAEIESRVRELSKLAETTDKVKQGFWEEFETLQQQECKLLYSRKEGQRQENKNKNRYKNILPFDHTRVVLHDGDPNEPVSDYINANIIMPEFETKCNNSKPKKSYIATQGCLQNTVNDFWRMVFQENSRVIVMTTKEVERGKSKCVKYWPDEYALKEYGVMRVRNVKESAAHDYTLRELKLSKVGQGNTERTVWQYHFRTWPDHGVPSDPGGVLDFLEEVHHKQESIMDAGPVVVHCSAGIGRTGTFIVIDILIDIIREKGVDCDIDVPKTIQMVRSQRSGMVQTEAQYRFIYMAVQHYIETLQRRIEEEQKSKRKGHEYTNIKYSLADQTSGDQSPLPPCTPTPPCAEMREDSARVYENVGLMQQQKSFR
Excerpt: as §1

[7] = molecular target: T4, STAT4 (UniProt Q14765 1-748, limits assumed); test: concentration at 50% binding of the STAT protein to the phosphotyrosine peptide (Example 4)
T4 construct: also called STAT4 polypeptide
T4 sequence (looked up): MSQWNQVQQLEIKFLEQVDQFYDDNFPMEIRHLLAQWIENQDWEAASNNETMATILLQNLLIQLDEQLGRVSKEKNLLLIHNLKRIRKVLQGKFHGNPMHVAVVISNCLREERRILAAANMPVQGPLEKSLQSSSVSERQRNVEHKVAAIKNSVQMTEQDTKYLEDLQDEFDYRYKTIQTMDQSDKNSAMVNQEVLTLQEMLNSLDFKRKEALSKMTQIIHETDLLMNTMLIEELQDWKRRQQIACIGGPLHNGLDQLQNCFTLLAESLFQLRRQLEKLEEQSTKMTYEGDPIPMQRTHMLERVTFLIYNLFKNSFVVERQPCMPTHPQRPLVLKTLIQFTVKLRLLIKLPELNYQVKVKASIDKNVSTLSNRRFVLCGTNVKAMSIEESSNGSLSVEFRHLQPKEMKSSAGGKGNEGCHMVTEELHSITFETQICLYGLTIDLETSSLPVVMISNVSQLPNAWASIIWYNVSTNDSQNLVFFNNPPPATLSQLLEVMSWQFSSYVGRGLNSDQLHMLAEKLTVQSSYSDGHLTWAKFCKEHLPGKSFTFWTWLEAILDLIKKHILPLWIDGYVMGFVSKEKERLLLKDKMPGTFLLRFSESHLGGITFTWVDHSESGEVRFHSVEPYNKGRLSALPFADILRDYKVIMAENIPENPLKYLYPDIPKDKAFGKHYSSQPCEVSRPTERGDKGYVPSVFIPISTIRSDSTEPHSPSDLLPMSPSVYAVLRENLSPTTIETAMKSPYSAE

[8] = molecular target: T5, STAT1 protein (UniProt P42224 1-750, limits assumed); test: as above
T5 sequence (looked up): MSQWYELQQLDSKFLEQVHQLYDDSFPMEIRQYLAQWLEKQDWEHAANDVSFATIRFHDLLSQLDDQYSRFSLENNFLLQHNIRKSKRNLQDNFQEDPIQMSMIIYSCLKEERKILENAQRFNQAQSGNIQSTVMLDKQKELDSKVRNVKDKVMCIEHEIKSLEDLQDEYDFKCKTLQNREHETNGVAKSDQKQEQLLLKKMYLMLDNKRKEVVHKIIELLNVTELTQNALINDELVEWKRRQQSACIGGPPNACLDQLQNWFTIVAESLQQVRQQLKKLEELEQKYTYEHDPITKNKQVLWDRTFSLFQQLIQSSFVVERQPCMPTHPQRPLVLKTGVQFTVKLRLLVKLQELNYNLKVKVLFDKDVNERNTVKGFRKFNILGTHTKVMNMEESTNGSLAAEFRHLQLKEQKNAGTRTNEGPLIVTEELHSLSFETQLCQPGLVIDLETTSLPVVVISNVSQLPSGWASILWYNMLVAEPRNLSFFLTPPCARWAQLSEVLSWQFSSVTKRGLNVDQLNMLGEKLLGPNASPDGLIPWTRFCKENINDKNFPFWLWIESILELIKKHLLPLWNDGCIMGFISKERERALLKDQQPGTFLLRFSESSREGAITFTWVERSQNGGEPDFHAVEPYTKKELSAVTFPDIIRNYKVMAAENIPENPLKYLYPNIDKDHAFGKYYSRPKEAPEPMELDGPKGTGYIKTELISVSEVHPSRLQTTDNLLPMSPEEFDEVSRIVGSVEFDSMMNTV

[9] = molecular target: T5, STAT1 protein; test: method not stated; told of the SH2 domain of STAT1 at the start of Example 1

**Q.** Which “binding to STAT6” value [1] does the source give for “GYKPFQDLI (G[pY]KPFQDLI) [phosphotyrosine-containing peptide ligand, Y is phosphotyrosine]” here?
**A.** +++

**Q.** Which “binding to Src” value [2] does the source give for “YEEI: phosphotyrosine-containing peptide ligand” here?
**A.** +++

**Q.** Which “binding to PLCγ” value [3] does the source give for “YITPLP: phosphotyrosine-containing peptide ligand ([pY]ITPLP)” here?
**A.** +++

**Q.** For “YMAP: phosphotyrosine-containing peptide ligand ([pY]MAP)”, which “binding to Ras-GAP” value [4] is on record?
**A.** +++

**Q.** Which “binding to P85-PI3K” value [5] does the source give for “YMDM: phosphotyrosine-containing peptide ligand ([pY]MDM)” here?
**A.** +++

**Q.** With “YMNM: phosphotyrosine-containing peptide ligand ([pY]MNM)” as the molecule, how does the “binding to P85-PI3K” value [5] read?
**A.** +++

**Q.** Which “binding to Syp” value [6] does the source give for “YTAVQP: phosphotyrosine-containing peptide ligand ([pY]TAVQP)” here?
**A.** +++

**Q.** Which IC50 [7] does the source give for ASSGEEG[pY]KPFQDLI [ASSGEEGY^PKPFQDLI] here?
**A.** 30 µM

**Q.** Which results are given for SFG[pY]DKPHVL [SFGY*DKPHVL]?
**A.** IC50 [8]: 0.6 µM; IC50 [7]: 10 µM

**Q.** How did the Kd [9] turn out when G[pY]DKPHVL [interferon-γ receptor-derived peptide sequence GY^PDKPHVL] was run?
**A.** ~0.12 µM
